Tests used:
Type in all cases: in vivo
[1] = system: Arabidopsis thaliana T1 plants; experiment: Mesotrione tolerance of transgenic Arabidopsis thaliana T1 plants (spray, bleached leaf area grade, damage score); parameters: Scores: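 damage score 0-100 computed as Σ(N×S)/(T×M)×100 over grades 0-3 with higher meaning more damage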; conditions: Table 9; for Classification and statistics of the grade of pesticide damage Grade 0: number of plants at grade 0; for Classification and statistics of the grade of pesticide damage Grade 1: number of plants at grade 1; for Classification and statistics of the grade of pesticide damage Grade 2: number of plants at grade 2; for Classification and statistics of the grade of pesticide damage Grade 3: number of plants at grade 3; for Scores: pesticide damage score
How it was run: (§1)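 Read-out: per-plant damage grade 0–3 from proportion of bleached leaf area at 7 DAT (1 <50%, 2 >50%, 3 100%). Plants were T1 transformants, glufosinate-selected, plus wild-type CK, sprayed 18 days post-sowing. Rates: topramezone 25–200, isoxaflutole 35–280, mesotrione 52.5–420 g ai/ha.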

[2] = system: Arabidopsis thaliana T1 plants; experiment: Isoxaflutole tolerance of transgenic Arabidopsis thaliana T1 plants (spray, bleached leaf area grade, damage score); conditions: Arabidopsis thaliana T1 plants; for Grade 0 (classification and statistics of the grade of pesticide damage; number of plants) / Grade 1 (classification and statistics of the grade of pesticide damage; number of plants) / Grade 2 (classification and statistics of the grade of pesticide damage; number of plants) / Grade 3 (classification and statistics of the grade of pesticide damage; number of plants): 16 plants;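 as to Scores: Weighted damage index from 0 to 100 where higher means more damage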
How it was run: as §1

[3] = system: Arabidopsis thaliana T1 plants; experiment: Topramezone tolerance of transgenic Arabidopsis thaliana T1 plants (spray, bleached leaf area grade, damage score); conditions: for Resistance evaluation / Scores / Grade 0 (classification and statistics of the grade of pesticide damage; number of plants) / Grade 1 (classification and statistics of the grade of pesticide damage; number of plants) / Grade 2 (classification and statistics of the grade of pesticide damage; number of plants) / Grade 3 (classification and statistics of the grade of pesticide damage; number of plants): Arabidopsis thaliana T1 plants; for Grade 0 (classification and statistics of the grade of pesticide damage; number of plants) / Grade 1 (classification and statistics of the grade of pesticide damage; number of plants) / Grade 2 (classification and statistics of the grade of pesticide damage; number of plants) / Grade 3 (classification and statistics of the grade of pesticide damage; number of plants): 16 plants; for tolerance to topramezone (resistance class): topramezone at four-fold or eight-fold field concentration
How it was run: as §1

[4] = isoxaflutole 140 g ai/ha (2x field concentration)
[5] = isoxaflutole 280 g ai/ha (4x field concentration)
[6] = topramezone 100 g ai/ha (4x field concentration)
[7] = topramezone 200 g ai/ha (8x field concentration)

B1: AsHPPDm-F372V-02: nucleotide sequence encoding Avena sativa HPPD with F372V; vector DBN11776 (nucleic acid)
DNA: ATGCCACCTACTCCAGCTACAGCTACTGGTGCTGCTGCTGCTGCCGTTACTCCTGAGCACGCTGCCAGGTCATTCCCCAGGGTGGTTCGCGTGAACCCCAGATCTGATAGGTTCCCAGTTCTGAGCTTCCACCATGTTGAGCTGTGGTGCGCTGATGCTGCTTCTGCTGCTGGCAGGTTCTCTTTCGCTCTTGGTGCTCCACTCGCTGCTAGATCTGATCTGTCTACAGGAAATAGCGCTCATGCCTCACTCCTGCTTCGCTCAGGTGCTTTGGCCTTCCTCTTCACCGCTCCATATGCTCCCCCACCTCAGGAGGCTGCTACTGCTGCTGCTACAGCCTCCATTCCAAGCTTCTCAGCTGATGCCGCTAGAACCTTCGCTGCTGCTCATGGACTTGCCGTGAGGTCTGTTGGTGTTCGCGTGGCTGATGCTGCTGAGGCTTTCAGAGTTTCCGTTGCCGGCGGAGCTAGGCCAGCTTTCGCTCCTGCTGATTTGGGACATGGTTTCGGCCTGGCTGAGGTTGAGCTTTACGGTGACGTGGTTCTCCGCTTCGTGTCTTACCCAGATGAGACTGACCTGCCTTTCCTTCCCGGCTTCGAGAGAGTTTCCTCTCCTGGTGCCGTGGATTACGGCCTGACAAGGTTCGACCACGTGGTTGGAAACGTTCCCGAGATGGCTCCAGTGATCGATTACATGAAGGGCTTCCTTGGATTCCATGAGTTCGCCGAGTTCACTGCTGAGGACGTGGGAACCACTGAGTCCGGTTTGAACTCTGTGGTTCTCGCCAACAATTCTGAGGCTGTTTTGCTCCCTCTGAATGAGCCTGTGCATGGAACCAAGAGGAGAAGCCAGATTCAAACTTACCTGGAGTACCACGGTGGCCCTGGAGTTCAGCATATCGCCCTTGCTTCTAATGATGTGTTGCGCACACTCAGAGAGATGCGCGCCAGAACCCCCATGGGAGGTTTCGAGTTCATGGCCCCACCACAGGCTAAGTACTACGAGGGCGTTAGAAGGATTGCTGGAGACGTGTTGAGCGAGGAGCAGATCAAGGAGTGCCAAGAGCTGGGTGTTCTTGTGGATAGGGATGACCAGGGCGTTCTGCTTCAAATTGTCACTAAGCCAGTGGGCGACCGCCCTACATTCTTCCTTGAGATGATTCAAAGAATCGGCTGCATGGAGAAGGATGAGGTTGGACAGGAGTACCAAAAGGGCGGATGCGGTGGCTTCGGAAAGGGTAACTTCAGCGAGTTGTTCAAGTCAATCGAGGACTACGAGAAGAGCCTCGAGGTGAAGCAGTCAGTGGTTGCCCAAAAGTCCTGA
modifications: AsHPPDm-F372V-02 Nucleotide Sequence
notes: vector DBN11776
[1]; mesotrione 210 g ai/ha (2×)
  Resistance evaluation: Moderately
  Classification and statistics of the grade of pesticide damage Grade 0: 5
  Classification and statistics of the grade of pesticide damage Grade 1: 7
  Classification and statistics of the grade of pesticide damage Grade 2: 4
  Classification and statistics of the grade of pesticide damage Grade 3: 0
  Scores: 31
[1]; mesotrione 420 g ai/ha (4×)
  Resistance evaluation: Poorly resistant
  Classification and statistics of the grade of pesticide damage Grade 0: 0
  Classification and statistics of the grade of pesticide damage Grade 1: 8
  Classification and statistics of the grade of pesticide damage Grade 2: 7
  Classification and statistics of the grade of pesticide damage Grade 3: 1
  Scores: 52
[2]; [4]
  Resistance evaluation: Moderately
  Scores: 33
  Grade 0 (classification and statistics of the grade of pesticide damage; number of plants): 6
  Grade 1 (classification and statistics of the grade of pesticide damage; number of plants): 5
  Grade 2 (classification and statistics of the grade of pesticide damage; number of plants): 4
  Grade 3 (classification and statistics of the grade of pesticide damage; number of plants): 1
[2]; [5]
  Resistance evaluation: Poorly resistant
  Scores: 67
  Grade 0 (classification and statistics of the grade of pesticide damage; number of plants): 0
  Grade 1 (classification and statistics of the grade of pesticide damage; number of plants): 0
  Grade 2 (classification and statistics of the grade of pesticide damage; number of plants): 16
  Grade 3 (classification and statistics of the grade of pesticide damage; number of plants): 0
[3]; [6]
  Resistance evaluation: Highly resistant
  Scores: 0
  Grade 0 (classification and statistics of the grade of pesticide damage; number of plants): 16
  Grade 1 (classification and statistics of the grade of pesticide damage; number of plants): 0
  Grade 2 (classification and statistics of the grade of pesticide damage; number of plants): 0
  Grade 3 (classification and statistics of the grade of pesticide damage; number of plants): 0
[3]; [7]
  Resistance evaluation: Highly resistant
  Scores: 0
  Grade 0 (classification and statistics of the grade of pesticide damage; number of plants): 16
  Grade 1 (classification and statistics of the grade of pesticide damage; number of plants): 0
  Grade 2 (classification and statistics of the grade of pesticide damage; number of plants): 0
  Grade 3 (classification and statistics of the grade of pesticide damage; number of plants): 0
[3]
  tolerance to topramezone (resistance class): highly-resistant

B2: AsHPPDm-F372V-F383W-02: nucleotide sequence encoding Avena sativa HPPD with F372V+F383W; vector DBN11777 (nucleic acid)
DNA: ATGCCACCTACTCCAGCTACAGCTACTGGTGCTGCTGCTGCTGCCGTTACTCCTGAGCACGCTGCCAGGTCATTCCCCAGGGTGGTTCGCGTGAACCCCAGATCTGATAGGTTCCCAGTTCTGAGCTTCCACCATGTTGAGCTGTGGTGCGCTGATGCTGCTTCTGCTGCTGGCAGGTTCTCTTTCGCTCTTGGTGCTCCACTCGCTGCTAGATCTGATCTGTCTACAGGAAATAGCGCTCATGCCTCACTCCTGCTTCGCTCAGGTGCTTTGGCCTTCCTCTTCACCGCTCCATATGCTCCCCCACCTCAGGAGGCTGCTACTGCTGCTGCTACAGCCTCCATTCCAAGCTTCTCAGCTGATGCCGCTAGAACCTTCGCTGCTGCTCATGGACTTGCCGTGAGGTCTGTTGGTGTTCGCGTGGCTGATGCTGCTGAGGCTTTCAGAGTTTCCGTTGCCGGCGGAGCTAGGCCAGCTTTCGCTCCTGCTGATTTGGGACATGGTTTCGGCCTGGCTGAGGTTGAGCTTTACGGTGACGTGGTTCTCCGCTTCGTGTCTTACCCAGATGAGACTGACCTGCCTTTCCTTCCCGGCTTCGAGAGAGTTTCCTCTCCTGGTGCCGTGGATTACGGCCTGACAAGGTTCGACCACGTGGTTGGAAACGTTCCCGAGATGGCTCCAGTGATCGATTACATGAAGGGCTTCCTTGGATTCCATGAGTTCGCCGAGTTCACTGCTGAGGACGTGGGAACCACTGAGTCCGGTTTGAACTCTGTGGTTCTCGCCAACAATTCTGAGGCTGTTTTGCTCCCTCTGAATGAGCCTGTGCATGGAACCAAGAGGAGAAGCCAGATTCAAACTTACCTGGAGTACCACGGTGGCCCTGGAGTTCAGCATATCGCCCTTGCTTCTAATGATGTGTTGCGCACACTCAGAGAGATGCGCGCCAGAACCCCCATGGGAGGTTTCGAGTTCATGGCCCCACCACAGGCTAAGTACTACGAGGGCGTTAGAAGGATTGCTGGAGACGTGTTGAGCGAGGAGCAGATCAAGGAGTGCCAAGAGCTGGGTGTTCTTGTGGATAGGGATGACCAGGGCGTTCTGCTTCAAATTGTCACTAAGCCAGTGGGCGACCGCCCTACATTCTGGCTTGAGATGATTCAAAGAATCGGCTGCATGGAGAAGGATGAGGTTGGACAGGAGTACCAAAAGGGCGGATGCGGTGGCTTCGGAAAGGGTAACTTCAGCGAGTTGTTCAAGTCAATCGAGGACTACGAGAAGAGCCTCGAGGTGAAGCAGTCAGTGGTTGCCCAAAAGTCCTGA
modifications: AsHPPDm-F372V-F383W-02 Nucleotide Sequence
notes: vector DBN11777
[1]; mesotrione 210 g ai/ha (2×)
  Resistance evaluation: Highly resistant
  Classification and statistics of the grade of pesticide damage Grade 0: 16
  Classification and statistics of the grade of pesticide damage Grade 1: 0
  Classification and statistics of the grade of pesticide damage Grade 2: 0
  Classification and statistics of the grade of pesticide damage Grade 3: 0
  Scores: 0
[1]; mesotrione 420 g ai/ha (4×)
  Resistance evaluation: Highly resistant
  Classification and statistics of the grade of pesticide damage Grade 0: 15
  Classification and statistics of the grade of pesticide damage Grade 1: 1
  Classification and statistics of the grade of pesticide damage Grade 2: 0
  Classification and statistics of the grade of pesticide damage Grade 3: 0
  Scores: 2
[2]; [4]
  Resistance evaluation: Highly resistant
  Scores: 0
  Grade 0 (classification and statistics of the grade of pesticide damage; number of plants): 16
  Grade 1 (classification and statistics of the grade of pesticide damage; number of plants): 0
  Grade 2 (classification and statistics of the grade of pesticide damage; number of plants): 0
  Grade 3 (classification and statistics of the grade of pesticide damage; number of plants): 0
[2]; [5]
  Resistance evaluation: Highly resistant
  Scores: 10
  Grade 0 (classification and statistics of the grade of pesticide damage; number of plants): 12
  Grade 1 (classification and statistics of the grade of pesticide damage; number of plants): 3
  Grade 2 (classification and statistics of the grade of pesticide damage; number of plants): 1
  Grade 3 (classification and statistics of the grade of pesticide damage; number of plants): 0
[3]; [6]
  Resistance evaluation: Highly resistant
  Scores: 0
  Grade 0 (classification and statistics of the grade of pesticide damage; number of plants): 16
  Grade 1 (classification and statistics of the grade of pesticide damage; number of plants): 0
  Grade 2 (classification and statistics of the grade of pesticide damage; number of plants): 0
  Grade 3 (classification and statistics of the grade of pesticide damage; number of plants): 0
[3]; [7]
  Resistance evaluation: Highly resistant
  Scores: 0
  Grade 0 (classification and statistics of the grade of pesticide damage; number of plants): 16
  Grade 1 (classification and statistics of the grade of pesticide damage; number of plants): 0
  Grade 2 (classification and statistics of the grade of pesticide damage; number of plants): 0
  Grade 3 (classification and statistics of the grade of pesticide damage; number of plants): 0
[3]
  tolerance to topramezone (resistance class): highly-resistant

Source: patent publication US20250043302A1, “MUTATED HYDROXYPHENYLPYRUVATE DIOXYGENASE POLYPEPTIDE, AND CODING GENE AND USE THEREOF” (BEIJING DABEINONG BIOTECHNOLOGY CO., LTD., priority 2021, published 2025)
